Assay in all cases: ELISA, coated CR6261, P. pastoris medium
What all share (details): remark: other sources report otherwise
On the technique in general: An ELISA detects its analyte on a solid surface through an enzyme-linked reagent.

For experiment [1], the target named is 191C8 (influenza A H1N1 A/Brisbane/59/2007).
Experiment [2] concerns the target 187C6 (influenza A H1N1 A/Brisbane/59/2007).
The target in experiment [3] is 137C11 (influenza A H1N1 A/Brisbane/59/2007).
In experiment [4] the target is 271F10 (influenza A H1N1 A/Brisbane/59/2007).
Experiment [5] concerns the target 174G3 (influenza A H1N1 A/Brisbane/59/2007).
Experiment [6] has as its target 234C5 (influenza A H1N1 A/Brisbane/59/2007).
Experiment [7] concerns the target 301F11 (influenza A H1N1 A/Brisbane/59/2007).
For experiment [8], the target named is 145C9 (influenza A H1N1 A/Brisbane/59/2007).
Experiment [9] addresses 275D4 (influenza A H1N1 A/Brisbane/59/2007).
In experiment [10] the target is 193B6 (influenza A H1N1 A/Brisbane/59/2007).
The target in experiment [11] is 145F2 (influenza A H1N1 A/Brisbane/59/2007).
The target in experiment [12] is 112G6 (influenza A H1N1 A/Brisbane/59/2007).
Experiment [13] deals with 275G3 (influenza A H1N1 A/Brisbane/59/2007).
Experiment [14] has as its target 171F6 (influenza A H1N1 A/Brisbane/59/2007).
Experiment [15] deals with 233F11 (influenza A H1N1 A/Brisbane/59/2007).

B1: CR6261 (antibody, V domains shown)
VH: EVQLVESGAEVKKPGSSVKVSCKASGGPFRSYAISWVRQAPGQGPEWMGGIIPIFGTTKYAPKFQGRVTITADDFAGTVYMELSSLRSEDTAMYYCAKHMGYQVRETMDVWGKGTTVTVSS
VL: QSVLTQPPSVSAAPGQKVTISCSGSSSNIGNDYVSWYQQLPGTAPKLLIYDNNKRPSGIPDRFSGSKSGTSATLGITGLQTGDEANYYCATWDRRPTAYVVFGGGTKLTVLG
As for B1, the CR6261 binding signal in [1] was 309000; in experiment [2], 345000; in experiment [3], 417000; in experiment [4], 315000; in experiment [5], 491000; in experiment [6] it was 278000. Besides, the CR6261 binding signal in experiment [7] worked out at 117000; in experiment [8], 182000; in [9], 327000; in experiment [10], 207000; in experiment [11] it was 499000; in experiment [12] it was 544000. Moreover, the figures for the CR6261 binding signal in [13], in experiment [14] and in experiment [15] were 115000, 140000 and 583000, respectively.

These data come from patent US20170189519A1.
